Test results reported in the supplement of paper PMC11246515.
± gives the standard deviation of the averaged measurements.

Assay: total protein half-life in vivo (active degradation + dilution); higher = more stable protein
[1] = E. coli NCM3722 delta-clpP delta-lon delta-hslV, growth: N-lim chemostat, doubling time 6 h
[2] = E. coli NCM3722 delta-clpP, growth: N-lim chemostat, doubling time 6 h
[3] = E. coli NCM3722 delta-hslV, growth: N-lim chemostat, doubling time 6 h
[4] = E. coli NCM3722 delta-lon, growth: N-lim chemostat, doubling time 6 h
[5] = E. coli NCM3722 delta-smpB, growth: N-lim chemostat, doubling time 6 h
[6] = wild type E. coli NCM3722, growth: C-lim chemostat, doubling time 3 h
[7] = wild type E. coli NCM3722, growth: C-lim chemostat, doubling time 6 h
[8] = wild type E. coli NCM3722, growth: C-lim chemostat, doubling time 12 h
[9] = wild type E. coli NCM3722, growth: N-lim chemostat, doubling time 6 h
[10] = wild type E. coli NCM3722, growth: N-lim chemostat, doubling time 12 h
[11] = wild type E. coli NCM3722, growth: P-lim chemostat, doubling time 6 h
[12] = wild type E. coli NCM3722, growth: P-lim chemostat, doubling time 12 h

Sequence | total protein half-life in vivo [1] [h] | total protein half-life in vivo [2] [h] | total protein half-life in vivo [3] [h] | total protein half-life in vivo [4] [h] | total protein half-life in vivo [5] [h] | total protein half-life in vivo [6] [h] | total protein half-life in vivo [7] [h] | total protein half-life in vivo [8] [h] | total protein half-life in vivo [9] [h] | total protein half-life in vivo [10] [h] | total protein half-life in vivo [11] [h] | total protein half-life in vivo [12] [h]
MTAELLVNVTPSETRVAYIDGGILQEIHIEREARRGIVGNIYKGRVSRVLPGMQAAFVDIGLDKAAFLHASDIMPHTECVAGEEQKQFTVRDISELVRQGQDLMVQVVKDPLGTKGARLTTDITLPSRYLVFMPGASHVGVSQRIESESERERLKKVVAEYCDEQGGFIIRTAAEGVGEAELASDAAYLKRVWTKVMERKKRPQTRYQLYGELALAQRVLRDFADAELDRIRVDSRLTYEALLEFTSEYIPEMTSKLEHYTGRQPIFDLFDVENEIQRALERKVELKSGGYLIIDQTEAMTTVDINTGAFVGHRNLDDTIFNTNIEATQAIARQLRLRNLGGIIIIDFIDMNNEDHRRRVLHSLEQALSKDRVKTSVNGFSALGLVEMTRKRTRESIEHVLCNECPTCHGRGTVKTVETVCYEIMREIVRVHHAYDSDRFLVYASPAVAEALKGEESHSLAEVEIFVGKQVKVQIEPLYNQEQFDVVMM [P0A9J0] | 3.85 ± 0.3 | 2.58 ± 0.087 | 3.04 ± 0.55 | 3.28 ± 0.38 | 2.62 ± 0.21 | 3.09 ± 0.69 | 4.36 ± 0.16 | 8.57 ± 0.57 | 2.6 ± 0.14 | 3.45 ± 0.073 | 5.69 ± 0.42 | 10.35 ± 0.087
MSQTSTLKGQCIAEFLGTGLLIFFGVGCVAALKVAGASFGQWEISVIWGLGVAMAIYLTAGVSGAHLNPAVTIALWLFACFDKRKVIPFIVSQVAGAFCAAALVYGLYYNLFFDFEQTHHIVRGSVESVDLAGTFSTYPNPHINFVQAFAVEMVITAILMGLILALTDDGNGVPRGPLAPLLIGLLIAVIGASMGPLTGFAMNPARDFGPKVFAWLAGWGNVAFTGGRDIPYFLVPLFGPIVGAIVGAFAYRKLIGRHLPCDICVVEEKETTTPSEQKASL [P0AER0] |  |  |  |  |  | 2.07 | 4.17 | 6.363 ± 0.04 |  |  |  | 
MIKKIFALPVIEQISPVLSRRKLDELDLIVVDHPQVKASFALQGAHLLSWKPAGEEEVLWLSNNTPFKNGVAIRGGVPVCWPWFGPAAQQGLPAHGFARNLPWTLKSHHEDADGVALTFELTQSEETKKFWPHDFTLLAHFRVGKTCEIDLESHGEFETTSALHTYFNVGDIAKVSVSGLGDRFIDKVNDAKENVLTDGIQTFPDRTDRVYLNPQDCSVINDEALNRIIAVGHQHHLNVVGWNPGPALSISMGDMPDDGYKTFVCVETAYASETQKVTKEKPAHLAQSIRVAKR | 5.78 ± 0.46 | 5.24 ± 0.6 | 6.17 ± 1.1 | 5.11 ± 0.53 | 5.67 ± 0.29 |  |  | 13 ± 1.6 | 5.42 ± 0.3 | 13.7 ± 2.5 | 5.72 ± 0.72 | 12.9 ± 1.8
MESIQPWIEKFIKQAQQQRSQSTKDYPTSYRNLRVKLSFGYGNFTSIPWFAFLGEGQEASNGIYPVILYYKDFDELVLAYGISDTNEPHAQWQFSSDIPKTIAEYFQATSGVYPKKYGQSYYACSQKVSQGIDYTRFASMLDNIINDYKLIFNSGKSVIPPMSKTESYCLEDALNDLFIPETTIETILKRLTIKKNIILQGPPGVGKTFVARRLAYLLTGEKAPQRVNMVQFHQSYSYEDFIQGYRPNGVGFRRKDGIFYNFCQQAKEQPEKKYIFIIDEINRANLSKVFGEVMMLMEHDKRGENWSVPLTYSENDEERFYVPENVYIIGLMNTADRSLAVVDYALRRRFSFIDIEPGFDTPQFRNFLLNKKAEPSFVESLCQKMNELNQEISKEATILGKGFRIGHSYFCCGLEDGTSPDTQWLNEIVMTDIAPLLEEYFFDDPYKQQKWTNKLLGDS | 5.77 ± 0.24 | 3.81 |  |  | 4 ± 0.19 | 3.13 ± 0.25 | 6.02 ± 2.1 | 8.15 ± 0.33 | 4.41 ± 0.59 |  | 5.12 ± 0.74 | 6.46 ± 0.81
MKKLVLSLSLVLAFSSATAAFAAIPQNIRIGTDPTYAPFESKNSQGELVGFDIDLAKELCKRINTQCTFVENPLDALIPSLKAKKIDAIMSSLSITEKRQQEIAFTDKLYAADSRLVVAKNSDIQPTVESLKGKRVGVLQGTTQETFGNEHWAPKGIEIVSYQGQDNIYSDLTAGRIDAAFQDEVAASEGFLKQPVGKDYKFGGPSVKDEKLFGVGTGMGLRKEDNELREALNKAFAEMRADGTYEKLAKKYFDFDVYGG [P0AEU0] |  | 5.99 ± 0.12 | 6.1 ± 0.068 | 6.35 ± 0.24 | 5.88 ± 0.91 | 3.08 ± 0.17 | 6.45 ± 1 | 13.1 ± 0.17 | 5.8 ± 0.59 | 13.9 ± 0.36 | 6.2 ± 0.54 | 14.3 ± 0.77
MATDSTQCVKKSRGRPKVFDRDAALDKAMKLFWQHGYEATSLADLVEATGAKAPTLYAEFTNKEGLFRAVLDRYIDRFAAKHEAQLFCEEKSVESALADYFAAIANCFTSKDTPAGCFMINNCTTLSPDSGDIANTLKSRHAMQERTLQQFLCQRQARGEIPPHCDVTHLAEFLNCIIQGMSISAREGASLEKLMQIAGTTLRLWPELVK | 5.38 ± 0.14 | 3.65 ± 0.34 | 1.46 ± 0.015 | 2.04 ± 0.17 | 1.57 ± 0.097 | 1.69 ± 0.081 | 2.99 ± 0.34 | 4.6 ± 0.59 | 1.78 ± 0.021 | 2.32 ± 0.54 | 2.49 ± 0.15 | 3.73 ± 1.1
